Laboratory results from the nanobody polyreactivity screen of Harvey et al. (2022).

Experiment: yeast display, Sf9 membrane polyspecificity reagent, FACS + sequencing; frameworks hold sequencing errors
Outline: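 After 36–48 hours of galactose induction, yeast (Saccharomyces cerevisiae BJ5465) displaying a synthetic nanobody library were stained at 4 °C for 1 hour with 10% biotinylated, detergent-solubilized Sf9 membrane reagent. Streptavidin microbeads enriched the stained cells before FACS sorting into low and high (top ~1%) gates on anti-HA and streptavidin fluorescence. Each clone's polyreactivity label reflects its gate of origin.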

Row | Sequence | polyreactivity (PSR sort gate)
1 | QVQLVESGGGLVQAGGRLRLSCAASGSTFRRNAMGWYRQAPGKERELVATISPGARTNYADSVKGRFTISRDNAKNTVYLQMNSLKPEDTAVYYCNAEFTLLYPLYDYWGQGTQVTLSS | low polyreactivity
2 | QVQLVESGGGLVQAGGRLRLSCAASGSTFSSNAMGWYRQAPGKERELVAAITTSGGSTYYADSVKGRFTISRDNAKTTVYLQMNSLKPEDTAVYYCAADLVHAYQWSIFLYGYWGQGTQVTVSS | low polyreactivity
3 | QVQLVESGGGLVQAGGRLRLSCAASGSTFVPYAMGWSRQAPGKERELVAGITWSGGRTYYADSVKGRFTISRDNAKNTVYFQLNSLKPEDTAVYYCNVEHLVYKYDGYYSRYYRLYYWGQGTHVTVSS | low polyreactivity
4 | QVQLVESGGGLVQAGGRLRLSCAASGSTFVRNAMGWYRQAPGKERELVAAITGTGDSTYYADSVKGRFTISRDNAKNTVYLQMNSLKPEDTAGYYCDANSDAYRYWYDYWGQGTQVTVSS | low polyreactivity
5 | QVQLVESGGGLVQAGGRLRLSCAASGSTLNRNAMGWYRQAPGKERELVAAIRVSGGSTYYSDSVKGRFTISRDNAKNTVYLQMNSLNPEDTAVYYCGTRYVRARWYGYWGEGTQVTVSS | high polyreactivity
6 | QVQLVESGGGLVQAGGRLRLSCAASGSTLPANAMGWYRQAPGKERELVSAITITTDGSTYYADSVKGRFTISRDNAKNTVYLQMNSLKPEDTAVYYCAVDRYRYHNRKMGYWGQGTEVTVSS | low polyreactivity
7 | QVQLVESGGGLVQAGGRLRLSCAASGSTSLYYAMGWYRQAPGKEREFVAAITWSGGSTYYADSGKGRFTITRDNAKNTVYLQMNSLKPEDTAVYYCAGRSYGYSAGYYWGQGTQVTVSS | high polyreactivity
8 | QVQLVESGGGLVQAGGRLRLSCAASGTIFYYNAMGWYRQAPGKERELVAVISQSGTSTYYADSVKGRFTNSRDNAKNTVYLQMNSLKPEDTAVYYCAADSRHGSIMDYWGLGTQVTVSS | low polyreactivity
9 | QVQLVESGGGLVQAGGRLRLSCAASGTTFWNNAMGWYRQAPGKERELVPGISRSGGSTYYADSVKGRFTISRDNAKNTVYLQMNSLKPEDTAVYYCNKVNYAKRNYWGQGTQVTVSS | low polyreactivity
10 | QVQLVESGGGLVQAGGRLRLSCAAYGSIFDGYAMGWYRQAPGKERELVAAISRGGRTYYADSVKGRFTISRDNAKNTVYLQMNSLKPEDTAVYYCAAVTRLDGNMDYWGQGTQVTVSS | high polyreactivity
11 | QVQLVESGGGLVQAGGRLRLSCADSGRTYRKYAIGWYRQAPGKEMDMVAAISWSGGSTYYANSVKGRFTISRDNAKNTVYLQMNSLKPEDTAVYYCAAVPVHTGSLYWGFTTGYDYWGQGTQVTVSS | low polyreactivity
12 | QVQLVESGGGLVQAGGRLRLSCADSGSTFVNSVMGWYRPAPGKERELVAGIRFRGGRTYYADSVKGRFTISRDNAKNTVYLQMNSLKPEDTAVYYCAKVQRQSVGFDYWGQGTQVTVSS | high polyreactivity
13 | QVQLVESGGGLVQAGGRLRLSCAGSGRIFISNTMGWYRQGPGKERELVASISLRGGSTYYADSVKGRFTISRDNAKNSVYLQMNSLKPEDTAVYYCAAATLRQYDDEYWGQCTQVTVSS | high polyreactivity
14 | QVQLVESGGGLVQAGGRLRLSCAPSGNIFRYYVMGWYRPAPGKEREFLAAITSSGGSTYYADSVKGRFTISRDNAKNTVYLKINSLKPEDTEVYYCAKDYWDPGWAEYDYWGQGTQVTVSS | low polyreactivity
15 | QVQLVESGGGLVQAGGRLRLSCAPSGRTFKYYAMGGYREAPGKERELVASISSGGNTNYADSVKGRFTISRDNATNSVYFQMNSLKPEDTAVYYCAASTWQNRRSYYWGQGTQVTVSS | high polyreactivity
16 | QVQLVESGGGLVQAGGRLRLSCAPSGSTFHSNDMGWYRQAPGKERELVAAITWSGARTYYVDSVKGRFTISRDNAKNTVYLQMNSLKPEDTAVYSCAKKAPSDRNNYWGQGTQVTVSS | high polyreactivity

Row | Sequence | polyreactivity (PSR sort gate)
17 | QVQLVESGGGLVQAGGRLRLSCPASGSIFGGYAMGWYRQAPGKERELVAGITRSGGSTYYADSVKGRFTISRYNAKNTVYFQMNSLKPEDTAVYYCAVEIQFYRSPRKVRSYDYWGQGTQVTVSS | low polyreactivity
18 | QVQLVESGGGLVQAGGRLRLSCPASGSTFYYYGMGWYRQAHGKERELVAAINCSCGTTYYADSVKGRFTISRDNAKNTVYLQLNSLKPEDTAVYYCAAAFYIYGVEGDYWGQGTQVTVSS | low polyreactivity
19 | QVQLVESGGGLVQAGGRLRLSCSASGRIFATYAMGWYRQAPGKERELVASISRRGGSTYYADSVKGRFTISRDNAKKTVYLQMNSLKPEDTAVYYCAKLFDTERGYNYWGQGTQVTVSS | high polyreactivity
20 | QVQLVESGGGLVQAGGRLRLSCSASGSTFGYYAMGWYRQAHGKQRELDASITWTGGSTYYADSVKGRFTISRDNAKYTVYLLMNSLKPEDTAVYYCAAQLEASYWLWTGYGYLGQGTQVTVSS | high polyreactivity
21 | QVQLVESGGGLVQAGGRLRLSSAASGIIFGNNAMGWYRQAPGKERELVAAIRYSGGRTYYADSVKGRFTISRDIAKNTVYLQMNSLKPEDTAVYYCNALRRGPDGSDYWGQGTQVTVSS | high polyreactivity
22 | QVQLVESGGGLVQAGGRLRLSSAASGRIFHSYAMGWYRQAPGKDRELVAGITSRGGTYYADSVKGRFTISRDNAKNTVYLQMNSLKPEDTAVYYCNADQALYSSGNKYDYWGQGTQVTVSS | low polyreactivity
23 | QVQLVESGGGLVQAGGRLRLSSAASGSIFDLYAMGWYRQAPGKERELVASIRYSGGRTYYADSVKGRFTISRDNAKNSVYLQMNSLNPEDTAFYYCNRDGGYTFIMDYWGQGTQVTVSS | low polyreactivity
24 | QVQLVESGGGLVQAGGRLRLSSAASRIIFRDNDMGWYRQAPGKERELVASISDSGGSTYYADSVKGRFTISRDNAKNTVYLQKNSLKSEATAVYYCAAPYLSLYLYDYWGQGTQVTVSS | low polyreactivity
25 | QVQLVESGGGLVQAGGRLRLSSADYGITIELYVMGWYRQAPGKERELVAAINRGTSTYYADSVKGRFTISRDNAKNTVYLQMNSLKPEDTAVYYCAAESGVVALYRYDYWGQGTQVTVSS | low polyreactivity
26 | QVQLVESGGGLVQAGGRLRLTCAASASIFHYNSMGWYRQATGKQRELVAAITSGGSTYADSVKGRFTISRDNAKNTVYLQMNSLKPEDTAVYYCNADSVGPRGDLGYWGQGTQVTVSS | low polyreactivity
27 | QVQLVESGGGLVQAGGRLRLTCAASGRIFVIYAMRWYRQAPGKERELVAGITRGDRTYADSVKARFTISRDNAKNTVYLQMNSLKPEDTAVYYCNADTGYRFDYWGQGTQVTVSS | high polyreactivity
28 | QVQLVESGGGLVQAGGRLSLSCAASGFIFDYYSMGWYRQAPGKERELVAAISWSGGSTYYADSVKGRFTISRDNAKNTVYLQMNSLKPEDTAVYYCNTYYQGYWGDFDYWGQGTQVTVSS | high polyreactivity
29 | QVQLVESGGGLVQAGGSFRLSCAASGGTVDTYVMGWYRQAPGKERELVAVITRGASTYYADSVKGRFTISRDNAKNTVYLQMNSLKPEDTAVYYCAAACYSPDYYRFWYSFDYWGQGTQVTVSS | low polyreactivity
30 | QVQLVESGGGLVQAGGSFRLSCAASGLISTTYAMGWYRQAPGKERELVAAINVSGGSTYYADSVKGRFTISRDHAKNTVYLQMNSLKPEDTAVYYCAARHDKRRQYYVGQSAFDYWGQGTQVTVSS | low polyreactivity
31 | QVQLVESGGGLVQAGGSHRFSCAASGRIFYGHVMGWYRQAPGKERELVADISYDGGSTYYADSVKGRFTISRDNAKKTVYLQMNSLNPEDTAVYYGATRFVYRYTFWYYSTEYNYCGQGTQVTVSS | low polyreactivity
32 | QVQLVESGGGLVQAGGSHRISCAASGFIFPYYAMGWYRQAPGKERELVAAITSGGSTNYADSVKGRFTISRDNAKNTVYLQMTSLKPEDTAVYYCDKRLKRWSVYCRYDYWGQGTQVTVSS | high polyreactivity
